Substrate in the data set: C[C@@H]1O[C@@H](Oc2ccc([N+](=O)[O-])cc2)[C@H](O)[C@H](O)[C@H]1O
The data set can be described thus: purified protein. The data set is classed as biochemical, Dictyoglomus thermophilum. The note with it: 100 mM NaAc-HAc pH 6.0, 55 °C, 0.1-5 mM pNPR, 0.2 mg/mL enzyme, apparent parameters.

B1: DthRha (Dictyoglomus thermophilum H-6-12) (protein)
chain: MKSSNIYSPFDLKCEFTTNPLGVDKKNPIFSWKLRHLEKNEKQTAYQVIVSSSLETINDNIGDVWDTGKVLSSEQVIKYEGKELEPCKVYFWKVRWWDSKDQESPFSVVNTFETGLMNEENWKAKWITKKEHKYEVYSPDGAPFGLNYTIAYAPMFRKSFSISKKIKRARVYIAGLGLYELYINGERIGDRVLDPGQTDYKKRVLYTVYDVSKNIRDGKNAIGVILGNGRYVKEYGYDFPKLIIQVLVEYEDDSIEWIVSDESWKTTYGPITLNSLYHGEIYDGRKEIKGWNLPDFDDSTWENAILAEPPGGKLYSEIYPPIRITKTIKPIKMWSPEPGTYVYDFGQNYTGWIKIKVRTNESGKEIRIRHAELTYEDGTLNYSTNRTALATDVYITKGEGYEEYEPRFTYHGFRYVEILGYPGVPTLEDIEGKVVHTAVESNGEFICSNELINKIHHNIIWGQLSNLMSIPTDCPQRDERMGWMGDAQLSAEEAIFNFDMIGFYRKYLNDIRDAQKENGSLSDVIPPYWSIYPGDPAWSTAYITIAWYLYQYYGDKYVLEEHYEGFKKYVEFLKKLAPDYIVSFYKYGDWCQPGTVRPKDNSGELTSTFYFYHDVITLSKIAKLLGKEADYKYYSELADKIKSAFNKKFLKEKAYASIPTELSEENVKALLEKYPEDIKDFLRQQFTILSSLGMFTSQTLNTLPLYLNLVPEDKVQDVLKTLLEDIIIRHDYHLDTGIVATRYIFDVLTSYGYDEVAYKIVNQKTYPSFGYMIEEGATTLWERWEKLTSTGMNSHNHIMFGSVDAWFYRVIAGVRVGEPGWNKIIFEPHPVGDLKYAKARLNTIKGEVEINWQKTENIFSMRISVPVNSEGEVHVPKLFERFVVKEGDNIIYEKKGDLEENEKYIVIRVGSGSYNFYMEKI
notes: 921 residues (2763 bp gene); theoretical 106 kDa, about 105 kDa on SDS-PAGE
Consider B1, for which the Michaelis-Menten constant (Km) amounted to 440 µM, the kcat was determined as 7.99 s⁻¹ and the kcat/Km came to 18200 M⁻¹ s⁻¹.

These data come from PMC12251106, “An Organic Solvent-Tolerant α-L-Rhamnosidase from Dictyoglomus thermophilum and Its Application in Production of Icariside I from Icariin” (Molecules, 2025).
